Measurements reported in US20210171654A1.
One block for each binder: values may come before it.

How the values were obtained:
[1] = target: Human SIRPa-His fusion protein (extracellular domain of human SIRPa fused to His-tag) (human) (UniProt P78324); assay: SPR, Biacore 3000 at 25 C, antibody captured by goat anti-human antibody, SIRPa-His as analyte
[2] = target: Human SIRPa-His fusion protein (extracellular domain of human SIRPa fused to His-tag) (human) (UniProt P78324); assay: Biacore (surface plasmon resonance), antibody captured, monomeric human SIRPa-His as analyte

Kd [1]: 1.15 nM
B1: Humanized 1H9 (antibody, human IgG1, kappa, N297A, V domains shown)
VH: QVQLVQSGAEVKKPGASVKVSCKASGYTFTSYWITWVKQAPGQGLEWIGDIYPGSGSTNHIEKFKSKATLTVDTSISTAYMELSRLRSDDTAVYYCATGYGSSYGYFDYWGQGTLVTVSS
VL: DIQMTQSPSSLSASVGDRVTITCRASENIYSYLAWYQQKPGKAPKLLIYTAKTLAEGVPSRFSGSGSGTDFTLTISSLQPEDFATYYCQHQYGPPFTFGQGTKLEIKR

Kd [1]: 5.53 nM
B2: Humanized 3C2 (antibody, human IgG1, kappa, N297A, V domains shown)
VH: QVQLVQSGAEVKKPGASVKVSCKASGYTFTSYWMHWVRQAPGQGLEWMGNIDPSDSDTHYNQKFKDRVTMTRDTSTSTVYMELSSLRSEDTAVYYCARGYSKYYAMDYWGQGTLVTVSS
VL: DIVMTQTPLSLSVTPGQPASISCRSSQSIVHSYGNTYLEWYLQKPGQSPQLLIYKVSNRFSGVPDRFSGSGSGTDFTLKISRVEAEDVGVYYCFQGSHVPYTFGQGTKLEIKR

Kd [2]: 5.58 nM
B3: 3C2 (parental mouse anti-human SIRPa monoclonal antibody) (antibody, V domains shown)
VH: QVQLQQPGAELVRPGSSVKLSCKASGYTFTSYWMHWVKQRPIQGLEWIGNIDPSDSDTHYNQKFKDKATLTVDKSSSTAYMQLSSLTSEDSAVYYCARGYSKYYAMDYWGQGTSVTVSS
VL: DVLMTQTPLSLSVSLGDQASISCRSSQSIVHSYGNTYLEWYLQKPGQSPKLLIYKVSNRFSGVPDRFSGSGSGTDFTLKISRVEAEDLGVYYCFQGSHVPYTFGGGTKLEIK

Kd [2]: 2.06 nM
B4: 1H9 (parental mouse anti-human SIRPa monoclonal antibody) (antibody, V domains shown)
VH: QVQLQQPGAERVKPGASVKMSCKASGYTFTSYWITWVKQRPGQGLEWIGDIYPGSGSTNHIEKFKSKATLTVDTSSNTAYMQLSRLTSEDSAVYYCATGYGSSYGYFDYWGQGTTLTVSS
VL: DIQMTQSPASLSASVGETVTITCRASENIYSYLAWYQQKQGKSPQLLVYTAKTLAEGVPSRFSGSGSGTQFSLKINSLQPEDFGNYYCQHQYGPPFTFGSGTRLVIK
